Source: patent US20160002344A1 (ONCOMED PHARMACEUTICALS, published 2016)
Substitutions are numbered along the chain they refer to.

T1: soluble LGR5-Fc fusion protein (human, UniProt O75473 22-564)
T1 construct: range 22-564; Expressed in insect cells with baculovirus, purified on protein A; not shown: human Fc
T1 sequence (looked up): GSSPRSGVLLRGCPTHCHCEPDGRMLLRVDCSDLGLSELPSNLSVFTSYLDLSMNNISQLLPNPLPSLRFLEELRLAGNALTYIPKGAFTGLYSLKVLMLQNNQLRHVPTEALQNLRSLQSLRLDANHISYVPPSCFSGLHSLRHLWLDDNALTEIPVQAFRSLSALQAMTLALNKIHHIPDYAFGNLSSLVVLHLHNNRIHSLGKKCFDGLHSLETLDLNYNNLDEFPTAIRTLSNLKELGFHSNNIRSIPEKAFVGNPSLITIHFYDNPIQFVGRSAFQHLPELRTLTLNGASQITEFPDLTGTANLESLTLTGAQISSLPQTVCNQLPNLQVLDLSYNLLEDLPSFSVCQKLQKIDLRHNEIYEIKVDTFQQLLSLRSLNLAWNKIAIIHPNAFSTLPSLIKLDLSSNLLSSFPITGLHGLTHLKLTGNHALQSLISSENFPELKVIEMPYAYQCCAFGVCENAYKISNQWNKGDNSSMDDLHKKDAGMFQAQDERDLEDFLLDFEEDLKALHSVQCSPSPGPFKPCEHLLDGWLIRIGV

B1: recombinant human RSPO1-Fc fusion protein (Fc fusion)
chain: SRGIKGKRQRRISAEGSQACAKGCELCSEVNGCLKCSPKLFILLERNDIRQVGVCLPSCPPGYFDARNPDMNKCIKCKIEHCEACFSHNFCTKCKEGLYLHKGRCYPACPEGSSAANGTMECSSPAQCEMSEWSPWGPCSKKQQLCGFRRGSEERTRRVLHAPVGDHAACSDTKETRRCTVRRVPCPEGQKRRKGGQGRRENANRNLARKESKEAGAGSRRRKGQQQQQQQGTVGPLTSAGPA
notes: not shown: human Fc region
B2: recombinant human RSPO2-Fc fusion protein (Fc fusion)
chain: QGNRWRRSKRASYVSNPICKGCLSCSKDNGCSRCQQKLFFFLRREGMRQYGECLHSCPSGYYGHRAPDMNRCARCRIENCDSCFSKDFCTKCKVGFYLHRGRCFDECPDGFAPLEETMECVEGCEVGHWSEWGTCSRNNRTCGFKWGLETRTRQIVKKPVKDTIPCPTIAESRRCKMTMRHCPGGKRTPKAKEKRNKKKKRKLIERAQEQHSVFLATDRANQ
notes: not shown: human Fc region
B3: anti-RSPO1 monoclonal antibody 89M5 (hybridoma ATCC PTA-11970) (antibody, mouse IgG1, kappa, V domains shown)
VH: EVQLQQSGPELVKPGASVKISCKTSGYTFTGYTMHWVRQSHGKTLEWIGGINPNNGGTTYNQNFKGKATLTVEKSSTTAYLELRSLTSEDSALYYCARKEFSDGYYFFAYWGQGTLVTVSS
VL: DIVMTQSHKFMSTSVGDRVNITCKASQDVIFAVAWYQQKPGQSPKLLIYWASTRHTGVPDRFTGSVSGTDYTLTISSVQAEDLALYYCQQHYSTPWTFGGGTKLEIKR
notes: Murine monoclonal antibody; also called parental 89M5 antibody
B4: anti-RSPO1 monoclonal antibody 89M4 (antibody, V domains shown)
VH: B3 VH with S121A
VL: DIVMTQSHKFMSTSVGDRVNITCKASQDVIFAVAWYQQKPGQSPKLLIYWASTRHTGVPDRFTGSVSGTDYTLTISSVQAEDLALYYCQQHYSTPWTFGGGTKLEIK
B5: anti-RSPO1 monoclonal antibody 89M25 (antibody, V domains shown)
VH: B3 VH with S121A
VL: B4 VL
B6: anti-RSPO2 monoclonal antibody 130M23 (hybridoma ATCC PTA-12021) (antibody, mouse IgG1, kappa, V domains shown)
VH: EVKLVESGGGLVKPGGSLKFSCAASGFSFSSYAMSWVRQTPEKRLEWVASISSGGSTYYPDSVKGRFTISRDNVRNILYLQMSSLRSEDTAMYFCARGGDPGVYNGDYEDAMDYWGQGTSVTVSS
VL: B3 VL with N20S, I30S, F31S, G64N, V66G
notes: Murine monoclonal antibody; also called parental 130M23 antibody
B7: humanized anti-RSPO2 antibody h130M23-H1L2 (antibody, human IgG2, kappa, V domains shown)
VH: EVQLVESGGGLVKPGGSLRLSCAASGFTFSSYAMSWVRQAPGKGLEWVSSISSGGSTYYPDSVKGRFTISRDNAKNSLYLQMNSLRAEDTAVYYCARGGDPGVYNGDYEDAMDYWGQGTTVTVSS
VL: DIQMTQSPSSLSASVGDRVTITCKASQDVSSAVAWYQQKPGKAPKLLIYWASTRHTGVPSRFSGSGSGTDFTLTISSVQAEDFATYYCQQHYSTPWTFGQGTKVEIKR
notes: also called 130M23-H1 with 130M23-L2
B8: humanized anti-RSPO2 antibody h130M23-H1L6 (antibody, human IgG2, kappa, V domains shown)
VH: B7 VH
VL: B7 VL with V78L, A80P
B9: recombinant human RSPO4-Fc fusion protein (Fc fusion)
chain: LNRRKKQVGTGLGGNCTGCIICSEENGCSTCQQRLFLFIRREGIRQYGKCLHDCPPGYFGIRGQEVNRCKKCGATCESCFSQDFCIRCKRQFYLYKGKCLPTCPPGTLAHQNTRECQGECELGPWGGWSPCTHNGKTCGSAWGLESRVREAGRAGHEEAATCQVLSESRKCPIQRPCPGERSPGQKKGRKDRRPRKDRKLDRRLDVRPRQPGLQP
notes: not shown: human Fc region
B10: recombinant human RSPO3-Fc fusion protein (Fc fusion)
chain: QNASRGRRQRRMHPNVSQGCQGGCATCSDYNGCLSCKPRLFFALERIGMKQIGVCLSSCPSGYYGTRYPDINKCTKCKADCDTCFNKNFCTKCKSGFYLHLGKCLDNCPEGLEANNHTMECVSIVHCEVSEWNPWSPCTKKGKTCGFKRGTETRVREIIQHPSAKGNLCPPTNETRKCTVQRKKCQKGERGKKGRERKRKKPNKGESKEAIPDSKSLESSKEIPEQRENKQQQKKRKVQDKQKSVSVSTVH
notes: not shown: human Fc region

What was measured:
[1] = target: T1, soluble LGR5-Fc fusion protein; assay: SPR (Biacore 2000), RSPO-Fc immobilized on CM5 chip, soluble LGR5-Fc injected 100 nM to 0.78 nM
Procedure: Binding affinities between RSPO proteins and LGR5 were analyzed by surface plasmon resonance. A soluble LGR5-Fc construct was generated using standard recombinant DNA techniques. Specifically, amino acids 1-564 of human LGR5 were ligated in frame to human Fc and the recombinant LGR5-Fc fusion protein was expressed in insect cells using baculovirus. The LGR5-Fc fusion protein was purified from the insect medium using protein A chromatography. Cleavage of the LGR5 signal sequence results in a mature LGR5-Fc fusion protein containing amino acids 22-564 of LGR5. Recombinant RSPO1-Fc, RSPO2-Fc, RSPO3-Fc and RSPO4-Fc fusion proteins were immobilized on CM5 chips using standard amine-based chemistry (NHS/EDC). Two-fold dilutions of soluble LGR5-Fc were injected over the chip surface (100 nM to 0.78 nM). Kinetic data were collected over time using a Biacore 2000 system from Biacore Life Sciences (GE Healthcare) and the data were fit using the simultaneous global fit equation to yield affinity constants (KD values) for each RSPO protein (Table 3).

[2] = target: Figure 9A construct 2: Positive charge, furin1, furin2 (human) (UniProt Q2MKA7); assay: FACS, HEK-293 cells transfected with the FLAG-RSPO1 portion-CD4TM construct in Figure 9A; anti-RSPO1 antibody 89M5, PE-conjugated secondary antibody
[3] = target: Figure 9A construct 5: furin1, furin2, cysteine (human) (UniProt Q2MKA7); assay: as above
[4] = target: Figure 9A construct 4: Positive charge, furin1, furin2, cysteine, Thrombospondin, Positive charge (human) (UniProt Q2MKA7); assay: as above
[5] = target: Figure 9A construct 3: Positive charge, furin1, furin2, cysteine, Thrombospondin (human) (UniProt Q2MKA7); assay: as above
[6] = target: Figure 9A construct 1: Positive charge, furin1 (human) (UniProt Q2MKA7); assay: as above
[7] = target: T2, recombinant mouse RSPO1-Fc protein (mouse, UniProt Q9Z132 21-265, limits assumed); assay: SPR (Biacore 2000), RSPO1-Fc immobilized on CM5 chip, antibody injected 100 nM to 0.78 nM
T2 construct: Construct not described; not shown: Fc; not described
Procedure: (§1) The KDs of antibodies 89M4, 89M5, 89M7 and 89M25 were determined using a Biacore 2000 system from Biacore LifeSciences (GE Healthcare). Recombinant human RSPO1-Fc or mouse RSPO1-Fc proteins were immobilized on CM5 chips using standard amine-based chemistry (NHS/EDC). The antibodies were serially diluted 2-fold from 100 nM to 0.78 nM in HBS-P (0.01M HEPES pH7.4, 0.15M NaCl, 0.005% v/v Surfactant P20) and were injected over the chip surface. Kinetic data were collected over time and were fit using the simultaneous global fit equation to yield affinity constants (KD values) for each antibody.

[8] = target: B1; assay: as above
Procedure: as §1

[9] = target: T3, recombinant mouse RSPO2-Fc protein (mouse, UniProt Q8BFU0 24-243, limits assumed); assay: SPR (Biacore 2000), RSPO2-Fc immobilized on CM5 chip, antibody injected 100 nM to 0.78 nM
T3 construct: Construct not described; not shown: Fc; not described
Procedure: as §1, with “KD” for “KDs”, “130M23 was” for “antibodies 89M4, 89M5, 89M7 and 89M25 were”, “RSPO2-Fc” for “RSPO1-Fc”

[10] = target: B2; assay: as above
Procedure: as §1, with “KD” for “KDs”, “130M23 was” for “antibodies 89M4, 89M5, 89M7 and 89M25 were”, “RSPO2-Fc” for “RSPO1-Fc”

[11] = target: B2; assay: SPR (Biacore 2000), human RSPO2-Fc immobilized on CM5 chip, antibody injected 100 nM to 0.78 nM
Procedure: as §1, with “KD” for “KDs”, “h130M23-H1L2” for “antibodies 89M4, 89M5, 89M7”, “h130M23-H1L6” for “89M25”, “RSPO2-Fc protein was” for “RSPO1-Fc or mouse RSPO1-Fc proteins were”

T3 sequence (Q8BFU0 24-243 limits assumed): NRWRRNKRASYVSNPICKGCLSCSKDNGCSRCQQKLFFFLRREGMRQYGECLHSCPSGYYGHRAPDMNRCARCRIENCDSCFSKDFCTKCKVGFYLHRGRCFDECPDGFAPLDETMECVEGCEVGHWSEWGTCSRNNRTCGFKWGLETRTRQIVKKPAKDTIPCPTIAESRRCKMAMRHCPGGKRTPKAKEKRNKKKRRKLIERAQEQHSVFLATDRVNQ
Sequence of Figure 9A construct 1: Positive charge, furin1 (human) (Q2MKA7 other isoform, or with tags, fused parts or gaps): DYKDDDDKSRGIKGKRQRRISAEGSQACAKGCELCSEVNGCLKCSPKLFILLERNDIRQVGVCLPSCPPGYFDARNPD
Sequence of Figure 9A construct 5: furin1, furin2, cysteine (human) (Q2MKA7 other isoform, or with tags, fused parts or gaps): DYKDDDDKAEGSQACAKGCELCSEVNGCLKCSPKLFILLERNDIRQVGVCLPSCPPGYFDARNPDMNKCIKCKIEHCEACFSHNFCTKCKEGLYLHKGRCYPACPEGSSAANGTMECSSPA
Sequence of Figure 9A construct 2: Positive charge, furin1, furin2 (human) (Q2MKA7 other isoform, or with tags, fused parts or gaps): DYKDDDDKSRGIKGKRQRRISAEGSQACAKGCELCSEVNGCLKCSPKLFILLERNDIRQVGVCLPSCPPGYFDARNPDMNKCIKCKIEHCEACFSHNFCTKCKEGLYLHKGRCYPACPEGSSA
Sequence of Figure 9A construct 3: Positive charge, furin1, furin2, cysteine, Thrombospondin (human) (Q2MKA7 other isoform, or with tags, fused parts or gaps): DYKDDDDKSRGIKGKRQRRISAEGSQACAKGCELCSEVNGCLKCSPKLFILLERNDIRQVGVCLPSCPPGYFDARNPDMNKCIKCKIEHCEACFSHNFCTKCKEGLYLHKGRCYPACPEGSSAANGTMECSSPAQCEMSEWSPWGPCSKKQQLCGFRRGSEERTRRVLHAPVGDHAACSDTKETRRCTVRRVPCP

| Kd [1] [pM] | Kd [7] [pM] | Kd [8] [pM] | Binder | other results |
| --- | --- | --- | --- | --- |
| 110000 | – | – | B1 | – |
| 14000 | – | – | B2 | – |
| – | < 100 | < 100 | B3 | MFI [2]: 15.5; MFI [3]: 406; MFI [4]: 10.3; MFI [5]: 20.1; MFI [6]: 5.42 |
| – | < 100 | < 100 | B4 | – |
| – | < 100 | < 100 | B5 | – |
| – | – | – | B6 | Kd [9]: 350 pM; Kd [10]: 140 pM |
| – | – | – | B7 | Kd [11]: 130 pM |
| – | – | – | B8 | Kd [11]: 150 pM |
| 73000 | – | – | B9 | – |
| < 1000 | – | – | B10 | – |
